Laboratory results taken from patent publication US20250161408A1, “PEPTIDIC INHIBITORS OF AMYLOID SELF- AND CROSS-ASSEMBLY” (TECHNISCHE UNIVERSITÄT MÜNCHEN, priority 2022, published 2025).

How the values were obtained:
[1] = molecular target: IAPP fibrils (fIAPP) (human) (UniProt P10997)
[2] = molecular target: islet amyloid polypeptide (IAPP) (human) (UniProt P10997)
[3] = molecular target: Aβ42 (Homo sapiens (Human)) (UniProt P05067)
[4] = molecular target: Aβ42 fibrils (fAβ42) (Homo sapiens (Human)) (UniProt P05067)

proteinase K digestion followed by dot blot (anti-fIAPP antibody) [1]: > 30 h
proteinase K digestion of hf-IAPP/ACM followed by dot blot [2]: < 6 h
proteinase K digestion of hf-Aβ42/Nle3-VF followed by dot blot (6E10) [3]: 30 min
proteinase K digestion followed by dot blot (6E10) [4]: 2 h
Substance: proteinase K (PK) (from UniProt P06873) (enzyme)
